The supplement of paper PMC10065799, “High-throughput profiling of sequence recognition by tyrosine kinases and SH2 domains using bacterial peptide display” (eLife, 2023)

How the values were obtained:
c-Src SH2 = assay: SH2 binding enrichment of the phosphorylated peptide, bacterial display (enrichment ratio); higher = better substrate or ligand; peptides without Tyr show the background
Grb2 SH2 = Grb2 SH2 (UniProt P62993); assay: as above
SHP2-C SH2 = assay: as above
FGFR3 = FGFR3 (UniProt P22607); assay: phosphorylation enrichment, bacterial display (enrichment ratio); higher = better substrate or ligand; peptides without Tyr show the background
Fer (mouse) = assay: as above
EPHB1 = EPHB1 (UniProt P54762); assay: as above
Jak2 = Jak2 (UniProt O60674); assay: as above
MERTK = MERTK (UniProt Q12866); assay: as above
AncSZ = assay: as above
Hck = Hck (UniProt P08631); assay: as above
Fyn = Fyn (UniProt P06241); assay: as above
EPHB2 = EPHB2 (UniProt P29323); assay: as above
FGFR1 = FGFR1 (UniProt P11362); assay: as above
c-Abl (mouse) = assay: as above
c-Src = assay: as above
Fes = Fes (UniProt P07332); assay: as above
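Throughout, for SH2 binding enrichment of the phosphorylated peptide, bacterial display: peptide library displayed on the E. coli surface as eCPX fusions, selected cells deep-sequenced, score is each peptide's frequency after selection divided by its frequency in the input.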
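Throughout, for phosphorylation enrichment, bacterial display: 11-residue human phosphosite peptides and single-mutation variants displayed on the E. coli surface, counted by deep sequencing, each peptide's frequency after selection divided by its frequency in the unselected input library; frequency after pTyr selection over input frequency; kinase dosed for 20-30% of maximal phosphorylation in three min.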

Sequence of Fes (P07332 whole entry, looked up, the tested form may be a part): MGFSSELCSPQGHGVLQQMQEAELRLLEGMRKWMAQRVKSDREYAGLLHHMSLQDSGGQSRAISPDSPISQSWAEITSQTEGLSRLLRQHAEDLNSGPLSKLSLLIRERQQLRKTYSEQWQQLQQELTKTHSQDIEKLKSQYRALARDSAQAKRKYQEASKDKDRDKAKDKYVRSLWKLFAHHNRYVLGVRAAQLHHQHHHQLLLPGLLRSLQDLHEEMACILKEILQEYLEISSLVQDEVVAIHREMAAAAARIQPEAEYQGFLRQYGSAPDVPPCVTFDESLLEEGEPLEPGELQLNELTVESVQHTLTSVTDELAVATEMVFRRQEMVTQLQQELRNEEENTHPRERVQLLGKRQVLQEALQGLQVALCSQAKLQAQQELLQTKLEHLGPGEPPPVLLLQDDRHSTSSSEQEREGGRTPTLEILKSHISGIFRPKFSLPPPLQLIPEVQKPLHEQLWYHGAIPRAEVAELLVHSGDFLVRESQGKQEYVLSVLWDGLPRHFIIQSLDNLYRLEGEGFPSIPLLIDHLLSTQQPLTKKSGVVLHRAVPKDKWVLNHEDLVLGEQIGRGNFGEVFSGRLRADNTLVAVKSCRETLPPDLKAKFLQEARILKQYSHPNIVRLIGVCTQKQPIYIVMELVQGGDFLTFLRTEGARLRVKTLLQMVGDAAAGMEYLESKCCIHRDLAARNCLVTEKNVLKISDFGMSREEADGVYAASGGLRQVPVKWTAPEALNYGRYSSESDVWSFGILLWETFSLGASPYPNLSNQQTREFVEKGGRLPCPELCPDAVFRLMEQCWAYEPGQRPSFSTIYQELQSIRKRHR
Sequence of FGFR1 (P11362 whole entry, looked up): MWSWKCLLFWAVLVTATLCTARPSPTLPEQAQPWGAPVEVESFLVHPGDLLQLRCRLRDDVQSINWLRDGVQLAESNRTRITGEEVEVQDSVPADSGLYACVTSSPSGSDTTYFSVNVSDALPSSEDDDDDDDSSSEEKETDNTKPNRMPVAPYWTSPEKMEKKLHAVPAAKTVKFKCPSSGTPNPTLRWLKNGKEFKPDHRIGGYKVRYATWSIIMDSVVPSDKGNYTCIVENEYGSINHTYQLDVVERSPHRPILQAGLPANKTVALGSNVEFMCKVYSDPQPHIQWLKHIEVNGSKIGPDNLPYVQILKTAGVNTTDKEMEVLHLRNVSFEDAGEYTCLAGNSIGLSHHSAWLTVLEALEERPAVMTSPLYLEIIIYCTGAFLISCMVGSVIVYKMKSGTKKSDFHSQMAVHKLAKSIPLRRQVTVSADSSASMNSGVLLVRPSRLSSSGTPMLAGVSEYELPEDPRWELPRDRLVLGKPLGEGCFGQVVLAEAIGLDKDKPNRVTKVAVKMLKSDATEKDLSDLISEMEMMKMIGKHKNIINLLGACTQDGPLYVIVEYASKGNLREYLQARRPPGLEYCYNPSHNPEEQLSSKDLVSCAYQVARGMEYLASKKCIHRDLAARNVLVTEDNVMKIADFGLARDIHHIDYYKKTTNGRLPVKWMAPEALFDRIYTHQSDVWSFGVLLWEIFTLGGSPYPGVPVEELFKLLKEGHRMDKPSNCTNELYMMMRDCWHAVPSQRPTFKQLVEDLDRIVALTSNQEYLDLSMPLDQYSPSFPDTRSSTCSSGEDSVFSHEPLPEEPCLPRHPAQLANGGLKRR
Sequence of FGFR3 (P22607 whole entry, looked up): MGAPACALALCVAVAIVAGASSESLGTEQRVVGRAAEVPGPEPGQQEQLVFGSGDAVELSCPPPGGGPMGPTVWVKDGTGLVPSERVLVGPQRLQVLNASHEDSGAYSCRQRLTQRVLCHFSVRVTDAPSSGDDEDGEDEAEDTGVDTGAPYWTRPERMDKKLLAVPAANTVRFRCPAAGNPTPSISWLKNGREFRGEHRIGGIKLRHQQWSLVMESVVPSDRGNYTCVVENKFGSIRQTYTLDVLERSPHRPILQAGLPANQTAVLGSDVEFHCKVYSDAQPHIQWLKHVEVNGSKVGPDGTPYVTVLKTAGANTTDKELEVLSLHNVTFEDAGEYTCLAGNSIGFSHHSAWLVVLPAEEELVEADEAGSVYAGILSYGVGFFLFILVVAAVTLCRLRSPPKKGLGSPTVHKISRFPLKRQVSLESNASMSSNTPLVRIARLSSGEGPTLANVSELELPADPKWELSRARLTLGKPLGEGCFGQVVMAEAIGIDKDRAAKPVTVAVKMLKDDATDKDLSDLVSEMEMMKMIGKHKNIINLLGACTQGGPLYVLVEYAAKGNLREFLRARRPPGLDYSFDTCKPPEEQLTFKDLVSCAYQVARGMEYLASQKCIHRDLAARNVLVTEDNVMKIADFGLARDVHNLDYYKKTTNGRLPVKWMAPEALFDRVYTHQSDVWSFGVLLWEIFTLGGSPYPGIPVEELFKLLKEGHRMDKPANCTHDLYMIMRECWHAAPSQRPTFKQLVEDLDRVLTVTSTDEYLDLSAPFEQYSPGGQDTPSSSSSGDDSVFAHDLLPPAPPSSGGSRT
Sequence of EPHB1 (P54762 whole entry, looked up): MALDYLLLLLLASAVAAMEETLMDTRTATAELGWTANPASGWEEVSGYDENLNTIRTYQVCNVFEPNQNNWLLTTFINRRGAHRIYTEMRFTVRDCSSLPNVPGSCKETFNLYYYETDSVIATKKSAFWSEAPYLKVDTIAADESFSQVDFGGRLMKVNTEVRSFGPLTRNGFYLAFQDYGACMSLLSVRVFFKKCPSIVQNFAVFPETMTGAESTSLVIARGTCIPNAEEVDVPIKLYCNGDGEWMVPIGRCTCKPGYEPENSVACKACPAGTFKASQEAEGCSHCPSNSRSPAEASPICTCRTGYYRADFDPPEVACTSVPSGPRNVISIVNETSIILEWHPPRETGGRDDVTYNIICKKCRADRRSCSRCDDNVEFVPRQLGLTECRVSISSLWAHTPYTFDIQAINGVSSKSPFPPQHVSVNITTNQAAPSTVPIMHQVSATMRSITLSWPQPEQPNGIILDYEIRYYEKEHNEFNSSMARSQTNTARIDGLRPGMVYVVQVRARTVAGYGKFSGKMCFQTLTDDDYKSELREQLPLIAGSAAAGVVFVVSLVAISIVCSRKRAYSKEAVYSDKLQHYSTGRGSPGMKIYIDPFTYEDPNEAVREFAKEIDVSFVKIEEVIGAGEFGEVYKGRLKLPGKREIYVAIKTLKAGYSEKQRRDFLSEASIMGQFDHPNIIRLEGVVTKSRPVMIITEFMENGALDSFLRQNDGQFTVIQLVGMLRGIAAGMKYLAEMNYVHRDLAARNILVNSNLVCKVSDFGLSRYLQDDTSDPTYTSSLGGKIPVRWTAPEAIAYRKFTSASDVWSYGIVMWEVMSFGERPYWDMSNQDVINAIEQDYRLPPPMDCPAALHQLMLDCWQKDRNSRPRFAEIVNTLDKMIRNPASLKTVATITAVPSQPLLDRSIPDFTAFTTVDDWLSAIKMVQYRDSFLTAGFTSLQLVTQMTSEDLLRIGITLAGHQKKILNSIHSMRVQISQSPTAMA
Sequence of Fyn (P06241 whole entry, looked up): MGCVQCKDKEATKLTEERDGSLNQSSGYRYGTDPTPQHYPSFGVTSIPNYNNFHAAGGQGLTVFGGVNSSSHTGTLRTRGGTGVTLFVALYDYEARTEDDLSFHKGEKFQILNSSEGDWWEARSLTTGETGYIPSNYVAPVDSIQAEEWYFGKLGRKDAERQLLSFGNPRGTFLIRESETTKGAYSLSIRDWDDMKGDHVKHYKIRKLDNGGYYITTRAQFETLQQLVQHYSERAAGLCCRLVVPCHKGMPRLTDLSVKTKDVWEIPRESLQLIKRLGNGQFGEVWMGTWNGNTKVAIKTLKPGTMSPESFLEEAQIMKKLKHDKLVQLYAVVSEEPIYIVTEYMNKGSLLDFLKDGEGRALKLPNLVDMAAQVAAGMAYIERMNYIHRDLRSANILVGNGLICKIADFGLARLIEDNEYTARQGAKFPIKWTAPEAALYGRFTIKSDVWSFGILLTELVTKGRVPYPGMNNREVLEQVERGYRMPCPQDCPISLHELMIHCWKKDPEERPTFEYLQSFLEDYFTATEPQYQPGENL
Sequence of MERTK (Q12866 whole entry, looked up): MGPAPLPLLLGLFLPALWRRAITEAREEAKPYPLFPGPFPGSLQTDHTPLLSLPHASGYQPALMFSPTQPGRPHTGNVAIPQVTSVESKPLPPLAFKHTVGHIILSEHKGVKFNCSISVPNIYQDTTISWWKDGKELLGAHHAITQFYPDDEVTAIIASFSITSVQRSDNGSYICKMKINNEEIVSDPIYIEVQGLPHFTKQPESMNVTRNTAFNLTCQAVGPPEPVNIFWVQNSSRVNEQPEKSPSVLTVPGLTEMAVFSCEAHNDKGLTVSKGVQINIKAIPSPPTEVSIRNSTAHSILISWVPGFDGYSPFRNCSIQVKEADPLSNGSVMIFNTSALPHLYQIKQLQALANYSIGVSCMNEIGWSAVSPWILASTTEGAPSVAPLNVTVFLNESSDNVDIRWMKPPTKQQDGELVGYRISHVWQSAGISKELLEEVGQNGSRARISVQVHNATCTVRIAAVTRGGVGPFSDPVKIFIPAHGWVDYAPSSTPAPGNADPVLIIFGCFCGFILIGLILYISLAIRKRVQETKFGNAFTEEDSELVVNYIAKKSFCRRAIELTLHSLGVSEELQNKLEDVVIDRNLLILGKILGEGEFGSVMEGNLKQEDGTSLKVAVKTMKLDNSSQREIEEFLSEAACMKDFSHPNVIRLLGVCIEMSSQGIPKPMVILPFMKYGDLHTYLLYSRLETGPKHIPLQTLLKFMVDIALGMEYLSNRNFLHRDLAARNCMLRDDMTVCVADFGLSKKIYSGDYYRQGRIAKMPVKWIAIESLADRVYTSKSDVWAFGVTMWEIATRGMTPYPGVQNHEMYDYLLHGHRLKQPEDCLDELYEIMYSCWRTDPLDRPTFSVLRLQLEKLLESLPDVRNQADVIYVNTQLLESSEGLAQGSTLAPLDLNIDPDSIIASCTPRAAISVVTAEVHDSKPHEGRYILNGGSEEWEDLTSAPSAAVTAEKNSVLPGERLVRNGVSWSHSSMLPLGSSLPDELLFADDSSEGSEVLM

Row | SH2 binding enrichment (c-Src SH2) | SH2 binding enrichment (Grb2 SH2) | SH2 binding enrichment (SHP2-C SH2) | Sequence | phosphorylation enrichment (FGFR3) | phosphorylation enrichment (Fer (mouse)) | phosphorylation enrichment (EPHB1) | phosphorylation enrichment (Jak2) | phosphorylation enrichment (MERTK) | phosphorylation enrichment (AncSZ) | phosphorylation enrichment (Hck) | phosphorylation enrichment (Fyn) | phosphorylation enrichment (EPHB2) | phosphorylation enrichment (FGFR1) | phosphorylation enrichment (c-Abl (mouse)) | phosphorylation enrichment (c-Src) | phosphorylation enrichment (Fes)
1 | 3.76 | 0.724 | 1.54 | QDRTYYESVRT [SPEN_Y633] | 1.37 | 4.79 | 0.98 | 0.82 | 1.21 | 0.996 | 4.01 | 2.28 | 0.758 | 1.9 | 0.61 | 2.66 | 0.874
2 | 0.552 | 1.16 | 0.747 | REEKNDKLKET [BCLAF1_Y459_Y459D] | 0.908 | 0.441 | 0.773 | 0.685 | 0.657 | 1.32 | 0.788 | 0.833 | 0.606 | 0.868 | 0.596 | 0.356 | 1.11
3 | 0.525 | 0.721 | 0.622 | SFIGQYSGKKE [L1CAM_Y1229] | 0.519 | 0.372 | 0.452 | 0.532 | 0.382 | 0.735 | 0.486 | 0.461 | 0.413 | 0.417 | 0.609 | 0.374 | 0.714
4 | 0.475 | 0.56 | 0.572 | AIFRRYSKFFD [SH3PXD2B_Y45_YF] | 0.587 | 0.408 | 0.526 | 1.04 | 0.572 | 1.03 | 0.54 | 0.582 | 0.565 | 0.598 | 0.773 | 0.626 | 1.13
5 | 0.426 | 1.01 | 0.619 | KMLEKYKEQLN [TLK2_Y259_R262Q] | 0.56 | 0.539 | 0.585 | 0.507 | 0.393 | 0.721 | 0.53 | 0.503 | 0.598 | 0.604 | 0.51 | 0.336 | 0.864
6 | 1.78 | 1.22 | 0.869 | YPLAEYTEVKT [ALDH1A3_Y497_A493P] | 0.824 | 0.516 | 0.563 | 0.721 | 0.326 | 1.1 | 0.538 | 0.433 | 0.642 | 1.1 | 0.607 | 0.444 | 0.946
7 | 0.553 | 0.897 | 0.874 | VAFVFYKSIGP [ADGRL4_Y302_YF] | 0.781 | 0.595 | 0.663 | 0.868 | 0.422 | 1.2 | 0.424 | 0.501 | 0.571 | 0.543 | 1.04 | 0.407 | 1.39
8 | 1.36 | 1.91 | 1.48 | ALVFLYFCIIF [SIGLEC12_Y494] | 0.803 | 0.6 | 0.397 | 1.01 | 0.636 | 1.04 | 0.964 | 0.552 | 0.483 | 0.58 | 0.957 | 0.741 | 1.16
9 | 0.619 | 1.02 | 0.704 | KQCSDYARELE [MYH3_Y1140_R1137C] | 0.769 | 0.578 | 0.597 | 1.19 | 0.557 | 1.23 | 0.571 | 0.552 | 0.605 | 0.654 | 0.929 | 0.514 | 1.26
10 | 0.502 | 1.02 | 0.512 | ANQDDHISFRH [IMP4_Y226_Y226H] | 0.535 | 0.416 | 0.518 | 0.833 | 0.453 | 0.852 | 0.501 | 0.419 | 0.497 | 0.456 | 0.912 | 0.611 | 0.903
11 | 0.489 | 0.856 | 0.673 | KRIKLYNQEND [RPGRIP1L_Y448] | 0.459 | 0.388 | 0.306 | 0.502 | 0.439 | 0.643 | 0.379 | 0.377 | 0.387 | 0.412 | 0.612 | 0.353 | 0.681
12 | 0.877 | 1.47 | 0.881 | LCRFGYANTSE [SI_Y1233_YF] | 0.581 | 0.381 | 0.454 | 0.706 | 0.423 | 0.756 | 0.422 | 0.419 | 0.529 | 0.455 | 0.625 | 0.405 | 0.893
13 | 1.89 | 1.35 | 1.52 | YIGVTYKNEED [PDGFRA_Y993] | 0.822 | 0.555 | 0.602 | 0.961 | 0.433 | 1 | 0.509 | 0.528 | 0.539 | 0.71 | 0.666 | 0.461 | 1.05
14 | 0.536 | 0.8 | 0.599 | FGDTSYIPFRD [CDC14C_Y132_P131S] | 0.496 | 0.391 | 0.424 | 0.676 | 0.452 | 0.659 | 0.443 | 0.443 | 0.533 | 0.517 | 0.546 | 0.518 | 0.672
15 | 0.542 | 0.849 | 0.521 | QWRTKYETDAI [MYH7_Y1375] | 0.624 | 0.543 | 0.663 | 1.74 | 0.545 | 0.971 | 0.355 | 0.643 | 0.432 | 0.4 | 1.04 | 0.528 | 1.36
16 | 0.782 | 0.828 | 0.604 | VTAVAYRLAEQ [HK1_Y461] | 0.584 | 0.446 | 0.47 | 0.543 | 0.349 | 0.633 | 0.475 | 0.473 | 0.424 | 0.495 | 0.509 | 0.385 | 0.792

Row | Sequence | SH2 binding enrichment (c-Src SH2) | SH2 binding enrichment (Grb2 SH2) | SH2 binding enrichment (SHP2-C SH2) | phosphorylation enrichment (FGFR3) | phosphorylation enrichment (Fer (mouse)) | phosphorylation enrichment (EPHB1) | phosphorylation enrichment (Jak2) | phosphorylation enrichment (MERTK) | phosphorylation enrichment (AncSZ) | phosphorylation enrichment (Hck) | phosphorylation enrichment (Fyn) | phosphorylation enrichment (EPHB2) | phosphorylation enrichment (FGFR1) | phosphorylation enrichment (c-Abl (mouse)) | phosphorylation enrichment (c-Src) | phosphorylation enrichment (Fes)
17 | VWALTYCDLHK [KCNH2_Y827_R823W] | 0.655 | 0.884 | 0.791 | 0.967 | 0.594 | 1.75 | 1.49 | 0.507 | 1.28 | 0.632 | 0.605 | 0.76 | 0.823 | 0.809 | 1.2 | 1.32
